These results are taken from patent US20220040297A1 (Chugai, published 2022).

The labels stand for the following.
B1: GLS3000 G89D (antibody, name in Kabat numbering, V domains shown)
VH: QVQLVESGGGVVQPGRSLRLSCAASGFTFSNAWMHWVRQAPGKGLEWVAQIKAKSNNYATYYAESVKGRFTISRDDSKNSLYLQMNSLKTEDTAVYYCRYVHYGAYYGVDAWGQGTTVTVSS
VL: DIVMTQSPLSLPVTPGEPASISCRSSQSLVHSNRNTYLHWYQQKPGQAPRLLIYKVSNRFSGVPDRFSGSGSGTDFTLKISRVEAEDVGVYYCDQGTQVPYTFGQGTKLEIK
notes: one-arm format as m2
B2: GLS3000 G89Q (antibody, name in Kabat numbering, V domains shown)
VH: QVQLVESGGGVVQPGRSLRLSCAASGFTFSNAWMHWVRQAPGKGLEWVAQIKAKSNNYATYYAESVKGRFTISRDDSKNSLYLQMNSLKTEDTAVYYCRYVHYGAYYGVDAWGQGTTVTVSS
VL: DIVMTQSPLSLPVTPGEPASISCRSSQSLVHSNRNTYLHWYQQKPGQAPRLLIYKVSNRFSGVPDRFSGSGSGTDFTLKISRVEAEDVGVYYCQQGTQVPYTFGQGTKLEIK
notes: one-arm format as m2
B3: GLS3000 G89Y (antibody, name in Kabat numbering, V domains shown)
VH: QVQLVESGGGVVQPGRSLRLSCAASGFTFSNAWMHWVRQAPGKGLEWVAQIKAKSNNYATYYAESVKGRFTISRDDSKNSLYLQMNSLKTEDTAVYYCRYVHYGAYYGVDAWGQGTTVTVSS
VL: DIVMTQSPLSLPVTPGEPASISCRSSQSLVHSNRNTYLHWYQQKPGQAPRLLIYKVSNRFSGVPDRFSGSGSGTDFTLKISRVEAEDVGVYYCYQGTQVPYTFGQGTKLEIK
notes: one-arm format as m2
B4: GLS3000 G89I (antibody, name in Kabat numbering, V domains shown)
VH: QVQLVESGGGVVQPGRSLRLSCAASGFTFSNAWMHWVRQAPGKGLEWVAQIKAKSNNYATYYAESVKGRFTISRDDSKNSLYLQMNSLKTEDTAVYYCRYVHYGAYYGVDAWGQGTTVTVSS
VL: DIVMTQSPLSLPVTPGEPASISCRSSQSLVHSNRNTYLHWYQQKPGQAPRLLIYKVSNRFSGVPDRFSGSGSGTDFTLKISRVEAEDVGVYYCIQGTQVPYTFGQGTKLEIK
notes: one-arm format as m2
B5: GLS3000 G89W (antibody, name in Kabat numbering, V domains shown)
VH: QVQLVESGGGVVQPGRSLRLSCAASGFTFSNAWMHWVRQAPGKGLEWVAQIKAKSNNYATYYAESVKGRFTISRDDSKNSLYLQMNSLKTEDTAVYYCRYVHYGAYYGVDAWGQGTTVTVSS
VL: DIVMTQSPLSLPVTPGEPASISCRSSQSLVHSNRNTYLHWYQQKPGQAPRLLIYKVSNRFSGVPDRFSGSGSGTDFTLKISRVEAEDVGVYYCWQGTQVPYTFGQGTKLEIK
notes: one-arm format as m2
B6: GLS3000 G91D (antibody, name in Kabat numbering, V domains shown)
VH: QVQLVESGGGVVQPGRSLRLSCAASGFTFSNAWMHWVRQAPGKGLEWVAQIKAKSNNYATYYAESVKGRFTISRDDSKNSLYLQMNSLKTEDTAVYYCRYVHYGAYYGVDAWGQGTTVTVSS
VL: DIVMTQSPLSLPVTPGEPASISCRSSQSLVHSNRNTYLHWYQQKPGQAPRLLIYKVSNRFSGVPDRFSGSGSGTDFTLKISRVEAEDVGVYYCGQDTQVPYTFGQGTKLEIK
notes: one-arm format as m2
B7: GLS3000 G89F (antibody, name in Kabat numbering, V domains shown)
VH: QVQLVESGGGVVQPGRSLRLSCAASGFTFSNAWMHWVRQAPGKGLEWVAQIKAKSNNYATYYAESVKGRFTISRDDSKNSLYLQMNSLKTEDTAVYYCRYVHYGAYYGVDAWGQGTTVTVSS
VL: DIVMTQSPLSLPVTPGEPASISCRSSQSLVHSNRNTYLHWYQQKPGQAPRLLIYKVSNRFSGVPDRFSGSGSGTDFTLKISRVEAEDVGVYYCFQGTQVPYTFGQGTKLEIK
notes: one-arm format as m2
B8: GLS3000 G89E (antibody, name in Kabat numbering, V domains shown)
VH: QVQLVESGGGVVQPGRSLRLSCAASGFTFSNAWMHWVRQAPGKGLEWVAQIKAKSNNYATYYAESVKGRFTISRDDSKNSLYLQMNSLKTEDTAVYYCRYVHYGAYYGVDAWGQGTTVTVSS
VL: DIVMTQSPLSLPVTPGEPASISCRSSQSLVHSNRNTYLHWYQQKPGQAPRLLIYKVSNRFSGVPDRFSGSGSGTDFTLKISRVEAEDVGVYYCEQGTQVPYTFGQGTKLEIK
notes: one-arm format as m2
B9: GLS3000 G89T (antibody, name in Kabat numbering, V domains shown)
VH: QVQLVESGGGVVQPGRSLRLSCAASGFTFSNAWMHWVRQAPGKGLEWVAQIKAKSNNYATYYAESVKGRFTISRDDSKNSLYLQMNSLKTEDTAVYYCRYVHYGAYYGVDAWGQGTTVTVSS
VL: DIVMTQSPLSLPVTPGEPASISCRSSQSLVHSNRNTYLHWYQQKPGQAPRLLIYKVSNRFSGVPDRFSGSGSGTDFTLKISRVEAEDVGVYYCTQGTQVPYTFGQGTKLEIK
notes: one-arm format as m2
B10: GLS3000 G89P (antibody, name in Kabat numbering, V domains shown)
VH: QVQLVESGGGVVQPGRSLRLSCAASGFTFSNAWMHWVRQAPGKGLEWVAQIKAKSNNYATYYAESVKGRFTISRDDSKNSLYLQMNSLKTEDTAVYYCRYVHYGAYYGVDAWGQGTTVTVSS
VL: DIVMTQSPLSLPVTPGEPASISCRSSQSLVHSNRNTYLHWYQQKPGQAPRLLIYKVSNRFSGVPDRFSGSGSGTDFTLKISRVEAEDVGVYYCPQGTQVPYTFGQGTKLEIK
notes: one-arm format as m2
B11: GLS3000 G91E (antibody, name in Kabat numbering, V domains shown)
VH: QVQLVESGGGVVQPGRSLRLSCAASGFTFSNAWMHWVRQAPGKGLEWVAQIKAKSNNYATYYAESVKGRFTISRDDSKNSLYLQMNSLKTEDTAVYYCRYVHYGAYYGVDAWGQGTTVTVSS
VL: DIVMTQSPLSLPVTPGEPASISCRSSQSLVHSNRNTYLHWYQQKPGQAPRLLIYKVSNRFSGVPDRFSGSGSGTDFTLKISRVEAEDVGVYYCGQETQVPYTFGQGTKLEIK
notes: one-arm format as m2
B12: GLS3000 G91A (antibody, name in Kabat numbering, V domains shown)
VH: QVQLVESGGGVVQPGRSLRLSCAASGFTFSNAWMHWVRQAPGKGLEWVAQIKAKSNNYATYYAESVKGRFTISRDDSKNSLYLQMNSLKTEDTAVYYCRYVHYGAYYGVDAWGQGTTVTVSS
VL: DIVMTQSPLSLPVTPGEPASISCRSSQSLVHSNRNTYLHWYQQKPGQAPRLLIYKVSNRFSGVPDRFSGSGSGTDFTLKISRVEAEDVGVYYCGQATQVPYTFGQGTKLEIK
notes: one-arm format as m2
B13: GLS3000 G89N (antibody, name in Kabat numbering, V domains shown)
VH: QVQLVESGGGVVQPGRSLRLSCAASGFTFSNAWMHWVRQAPGKGLEWVAQIKAKSNNYATYYAESVKGRFTISRDDSKNSLYLQMNSLKTEDTAVYYCRYVHYGAYYGVDAWGQGTTVTVSS
VL: DIVMTQSPLSLPVTPGEPASISCRSSQSLVHSNRNTYLHWYQQKPGQAPRLLIYKVSNRFSGVPDRFSGSGSGTDFTLKISRVEAEDVGVYYCNQGTQVPYTFGQGTKLEIK
notes: one-arm format as m2
B14: GLS3000 G91P (antibody, name in Kabat numbering, V domains shown)
VH: QVQLVESGGGVVQPGRSLRLSCAASGFTFSNAWMHWVRQAPGKGLEWVAQIKAKSNNYATYYAESVKGRFTISRDDSKNSLYLQMNSLKTEDTAVYYCRYVHYGAYYGVDAWGQGTTVTVSS
VL: DIVMTQSPLSLPVTPGEPASISCRSSQSLVHSNRNTYLHWYQQKPGQAPRLLIYKVSNRFSGVPDRFSGSGSGTDFTLKISRVEAEDVGVYYCGQPTQVPYTFGQGTKLEIK
notes: one-arm format as m2
B15: GLS3000 G89V (antibody, name in Kabat numbering, V domains shown)
VH: QVQLVESGGGVVQPGRSLRLSCAASGFTFSNAWMHWVRQAPGKGLEWVAQIKAKSNNYATYYAESVKGRFTISRDDSKNSLYLQMNSLKTEDTAVYYCRYVHYGAYYGVDAWGQGTTVTVSS
VL: DIVMTQSPLSLPVTPGEPASISCRSSQSLVHSNRNTYLHWYQQKPGQAPRLLIYKVSNRFSGVPDRFSGSGSGTDFTLKISRVEAEDVGVYYCVQGTQVPYTFGQGTKLEIK
notes: one-arm format as m2
B16: GLS3000 G89R (antibody, name in Kabat numbering, V domains shown)
VH: QVQLVESGGGVVQPGRSLRLSCAASGFTFSNAWMHWVRQAPGKGLEWVAQIKAKSNNYATYYAESVKGRFTISRDDSKNSLYLQMNSLKTEDTAVYYCRYVHYGAYYGVDAWGQGTTVTVSS
VL: DIVMTQSPLSLPVTPGEPASISCRSSQSLVHSNRNTYLHWYQQKPGQAPRLLIYKVSNRFSGVPDRFSGSGSGTDFTLKISRVEAEDVGVYYCRQGTQVPYTFGQGTKLEIK
notes: one-arm format as m2
B17: GLS3000 G89M (antibody, name in Kabat numbering, V domains shown)
VH: QVQLVESGGGVVQPGRSLRLSCAASGFTFSNAWMHWVRQAPGKGLEWVAQIKAKSNNYATYYAESVKGRFTISRDDSKNSLYLQMNSLKTEDTAVYYCRYVHYGAYYGVDAWGQGTTVTVSS
VL: DIVMTQSPLSLPVTPGEPASISCRSSQSLVHSNRNTYLHWYQQKPGQAPRLLIYKVSNRFSGVPDRFSGSGSGTDFTLKISRVEAEDVGVYYCMQGTQVPYTFGQGTKLEIK
notes: one-arm format as m2
B18: GLS3000 G89H (antibody, name in Kabat numbering, V domains shown)
VH: QVQLVESGGGVVQPGRSLRLSCAASGFTFSNAWMHWVRQAPGKGLEWVAQIKAKSNNYATYYAESVKGRFTISRDDSKNSLYLQMNSLKTEDTAVYYCRYVHYGAYYGVDAWGQGTTVTVSS
VL: DIVMTQSPLSLPVTPGEPASISCRSSQSLVHSNRNTYLHWYQQKPGQAPRLLIYKVSNRFSGVPDRFSGSGSGTDFTLKISRVEAEDVGVYYCHQGTQVPYTFGQGTKLEIK
notes: one-arm format as m2
B19: GLS3000 G89K (antibody, name in Kabat numbering, V domains shown)
VH: QVQLVESGGGVVQPGRSLRLSCAASGFTFSNAWMHWVRQAPGKGLEWVAQIKAKSNNYATYYAESVKGRFTISRDDSKNSLYLQMNSLKTEDTAVYYCRYVHYGAYYGVDAWGQGTTVTVSS
VL: DIVMTQSPLSLPVTPGEPASISCRSSQSLVHSNRNTYLHWYQQKPGQAPRLLIYKVSNRFSGVPDRFSGSGSGTDFTLKISRVEAEDVGVYYCKQGTQVPYTFGQGTKLEIK
notes: one-arm format as m2
B20: GLS3000 G89L (antibody, name in Kabat numbering, V domains shown)
VH: QVQLVESGGGVVQPGRSLRLSCAASGFTFSNAWMHWVRQAPGKGLEWVAQIKAKSNNYATYYAESVKGRFTISRDDSKNSLYLQMNSLKTEDTAVYYCRYVHYGAYYGVDAWGQGTTVTVSS
VL: DIVMTQSPLSLPVTPGEPASISCRSSQSLVHSNRNTYLHWYQQKPGQAPRLLIYKVSNRFSGVPDRFSGSGSGTDFTLKISRVEAEDVGVYYCLQGTQVPYTFGQGTKLEIK
notes: one-arm format as m2

The experiment deals with CD3ε homodimer protein (human, UniProt P07766 23-126, limits assumed). Briefly: SPR, immobilized CD3ε homodimer.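 Further: biacore T200 surface plasmon resonance at 25 °C, antibody variants flowed as analytes over amine-coupled CD3ε homodimer on a CM4 chip, variant binding amount divided by that of GLS3000 antibody.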
CD3ε homodimer protein, sequence (P07766 23-126 limits assumed): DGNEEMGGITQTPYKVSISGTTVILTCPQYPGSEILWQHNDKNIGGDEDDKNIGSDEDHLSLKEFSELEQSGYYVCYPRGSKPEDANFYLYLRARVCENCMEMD
For the molecule B1, the “ratio of amounts bound (vs GLS3000)” value is 0.33.

On to B2, for which the “ratio of amounts bound (vs GLS3000)” value is 0.38.

In the case of B3, the “ratio of amounts bound (vs GLS3000)” value is 1.19.

In the case of B4, the “ratio of amounts bound (vs GLS3000)” value was 1.07.

As to B5, the “ratio of amounts bound (vs GLS3000)” value was determined as 0.5.

As to B6, the “ratio of amounts bound (vs GLS3000)” value came out at 0.16.

B7: the “ratio of amounts bound (vs GLS3000)” value was found to be 1.09.

On to B8, for which the “ratio of amounts bound (vs GLS3000)” value stood at 0.26.

Take B9: the “ratio of amounts bound (vs GLS3000)” value was 1.03.

For the molecule B10, the “ratio of amounts bound (vs GLS3000)” value was determined as 0.35.

Take B11: the “ratio of amounts bound (vs GLS3000)” value is 0.16.

For the molecule B12, the “ratio of amounts bound (vs GLS3000)” value worked out at 0.27.

As to B13, the “ratio of amounts bound (vs GLS3000)” value was found to be 0.8.

As to B14, the “ratio of amounts bound (vs GLS3000)” value stood at 0.27.

Consider B15, for which the “ratio of amounts bound (vs GLS3000)” value came to 1.63.

For B16, the “ratio of amounts bound (vs GLS3000)” value stood at 0.19.

As to B17, the “ratio of amounts bound (vs GLS3000)” value is 0.52.

For the molecule B18, the “ratio of amounts bound (vs GLS3000)” value worked out at 0.7.

In the case of B19, the “ratio of amounts bound (vs GLS3000)” value was determined as 0.4.

Consider B20, for which the “ratio of amounts bound (vs GLS3000)” value was found to be 0.94.
